Experimental data taken from patent publication US20160115245A1 (VIB VZW, published 2016).

Assays:
[1] = biological target: T1, recombinant human superoxide dismutase [Cu-Zn] (SOD1), wild type (human, UniProt P00441 2-154); assay: isothermal titration calorimetry, 25 C
T1 construct: Used immobilised in the dot blot and in solution in ITC; The construct is not described further; also called recombinant SOD1; SOD1 WT

[2] = biological target: T1, recombinant human superoxide dismutase …; assay: isothermal titration calorimetry, 25 C; remark: listed apart in the source
[3] = biological target: T2, SOD1-CFP (human SOD1 fused to CFP, expressed in HeLa cells) (human, UniProt P00441 2-154); assay: Ni-agarose pull-down of HA-Myc-His6 tagged nanobody from co-transfected HeLa cells, blot anti-CFP
T2 construct: not shown: CFP of pCDNA3-CFP (Addgene #13030)
T2 sequence (P00441 2-154): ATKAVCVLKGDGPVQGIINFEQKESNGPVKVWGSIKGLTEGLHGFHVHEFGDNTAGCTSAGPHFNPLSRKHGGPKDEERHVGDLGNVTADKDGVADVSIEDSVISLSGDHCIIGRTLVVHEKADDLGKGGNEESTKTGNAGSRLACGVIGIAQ

T1 sequence (P00441 2-154 limits assumed): as the sequence (P00441 2-154) above

Kd [1] | ΔH [2] | ΔS [2] | binding result [3] | Binder
~1000 nM | -16 kcal/mol | -23 cal/mol/deg | – | Nb2, His6-tagged, expressed in E. coli (pET30a) (VHH, Dromedary-derived nanobody; also called SOD1 nanobody from dromedary library; not shown: His6 tag from pET30a (BamHI/XhoI)) VHH: QVQLQESGGGSVQAGGSLRLACVASGGDTRPYITYWMGWYRQAPGKEREGVATIYTGGSGTYYSDSVEGRFTISQDKAQRTVYLQMNDLKPEDTAMYYCAAGNGALPPGRRLSPQNMDTWGPGTQVTVSS
~200 nM | -11 kcal/mol | -17 cal/mol/deg | – | Nb1, His6-tagged, expressed in E. coli (pET30a) (VHH, Alpaca-derived nanobody; also called SOD1 nanobody from alpaca library; not shown: His6 tag and the pET30a vector residues around it) VHH: QVQLQESGGGLVQPGGSLRLSCRASETLFSLYAMGWYRQAPGKQPELIATISGGGEGTGNYADPVKGRFTISRNNADNMVFLQMNNLKPEDTAVYYCNVYGTNLAPWGQGTQVTVSS
– | – | – | no binding | Nb4 (VHH, Same nanobody as m4, but in the HeLa-expressed HA-Myc-His6 format of m6-m8; also called Nb4, HA-Myc-His6 tagged, expressed in HeLa cells) VHH: QVQLQESGGGSVQTGGSLRLSCAASGYTFSSYCMGWFRQAPGKERELVSTIISDGSTYYADSVKGRFTISQDNAKNTVYLQMNNLKAEDTAIYYCAARSGGVCSGRASRYNYWGQGTQVTVSS
